Here are results for 125 sequences from the supplement of paper PMC9112550, “Optimization of the antimicrobial peptide Bac7 by deep mutational scanning” (BMC Biology, 2022).

The test system of this series is Escherichia coli TOP10. The series is described as follows: shrunken log2 fold change of peptide-encoding DNA abundance (4.5 h post-induction vs induction); higher = less antimicrobial activity (less host growth inhibition). To be noted: time post-induction: 4.5 h; library: site-saturation at positions 5, 18, 19, 20.
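Further: peptides expressed intracellularly from a pBAD plasmid library in pooled LB shake-flask culture, induced with 0.3% L-arabinose, DNA abundance read by NGS, three biological replicates, DESeq2 with apeglm shrinkage.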

Consider RRIRVRPPRLPRPRPRPNKRPRP, for which the “shrunken log2 fold change” value was -0.158. For RRIRFRPPRLPRPRPRPQREPRP the value was 0.296. The value for RRIRTRPPRLPRPRPRPVFPPRP was -0.339; that for RRIRARPPRLPRPRPRPRNWPRP was 0.388; that for RRIRCRPPRLPRPRPRPKTGPRP was -0.0569.

RRIRARPPRLPRPRPRPINWPRP: the “shrunken log2 fold change” value was 0.139. On to RRIRGRPPRLPRPRPRPMPTPRP, for which the “shrunken log2 fold change” value is 0.612. As for RRIRGRPPRLPRPRPRPMRYPRP, the “shrunken log2 fold change” value worked out at 0.347. As for RRIRLRPPRLPRPRPRPLEPPRP, the “shrunken log2 fold change” value came out at 0.0493. For RRIRMRPPRLPRPRPRPMRHPRP the value was 0.452; for RRIRKRPPRLPRPRPRPSMFPRP, -0.15. For RRIRHRPPRLPRPRPRPSAQPRP the value was 0.127; for RRIRERPPRLPRPRPRPFQCPRP, -0.018. For RRIRWRPPRLPRPRPRPDRIPRP the value was 0.082; for RRIRVRPPRLPRPRPRPFPIPRP, -0.39; for RRIRSRPPRLPRPRPRPWGIPRP, -0.118. Take RRIRGRPPRLPRPRPRPAKEPRP: the “shrunken log2 fold change” value turned out to be 0.414. RRIRQRPPRLPRPRPRPWGYPRP: the “shrunken log2 fold change” value was -0.166. For RRIRLRPPRLPRPRPRPDCLPRP the value was -0.0212; for RRIRWRPPRLPRPRPRPQVQPRP, 0.115; for RRIRPRPPRLPRPRPRPHCWPRP, 0.151. For RRIRERPPRLPRPRPRPVVEPRP the value was 0.118; for RRIRVRPPRLPRPRPRPGSHPRP, 0.105; for RRIRMRPPRLPRPRPRPMCKPRP, 0.00898. For RRIRGRPPRLPRPRPRPFGHPRP the value was -0.164; for RRIRSRPPRLPRPRPRPGAWPRP, 0.342; for RRIRRRPPRLPRPRPRPNGHPRP, 0.193. For the sequence RRIRCRPPRLPRPRPRPDAEPRP, the “shrunken log2 fold change” value worked out at 1.03. For RRIRGRPPRLPRPRPRPRHRPRP the value was 0.401. The value for RRIRDRPPRLPRPRPRPIMHPRP was -0.0198. In the case of RRIRYRPPRLPRPRPRPKWIPRP, the “shrunken log2 fold change” value is -0.863. In the case of RRIRGRPPRLPRPRPRPDYQPRP, the “shrunken log2 fold change” value was -0.418. For RRIRFRPPRLPRPRPRPCKMPRP the value was 0.111. For RRIRSRPPRLPRPRPRPNYMPRP the value was -0.756; for RRIRFRPPRLPRPRPRPIHTPRP, 0.0523; for RRIRQRPPRLPRPRPRPFMSPRP, -0.0241.

Regarding RRIRHRPPRLPRPRPRPLTLPRP, the “shrunken log2 fold change” value was -0.193.

For the sequence RRIRLRPPRLPRPRPRPKMQPRP, the “shrunken log2 fold change” value amounted to 0.282.

Regarding RRIRERPPRLPRPRPRPIFCPRP, the “shrunken log2 fold change” value turned out to be 0.0456. For RRIRTRPPRLPRPRPRPFRCPRP the value was 0.0246.

In the case of RRIRRRPPRLPRPRPRPSDPPRP, the “shrunken log2 fold change” value is -0.00173. For RRIRMRPPRLPRPRPRPRRGPRP the value was 1.09.

RRIRWRPPRLPRPRPRPMRWPRP: the “shrunken log2 fold change” value is 0.648.

On to RRIRFRPPRLPRPRPRPGHHPRP, for which the “shrunken log2 fold change” value was -0.561. For RRIRWRPPRLPRPRPRPMAGPRP the value was 0.0179; for RRIRKRPPRLPRPRPRPTEAPRP, 0.77; for RRIRTRPPRLPRPRPRPKPVPRP, 0.217. Take RRIRNRPPRLPRPRPRPDTFPRP: the “shrunken log2 fold change” value worked out at 0.0183. The value for RRIRRRPPRLPRPRPRPPIKPRP was 0.14; that for RRIRHRPPRLPRPRPRPQFWPRP was 0.115. For the sequence RRIRKRPPRLPRPRPRPWHYPRP, the “shrunken log2 fold change” value was determined as 0.0725. The value for RRIRVRPPRLPRPRPRPNRPPRP was -0.262.

RRIRLRPPRLPRPRPRPNNEPRP: the “shrunken log2 fold change” value was -0.276. For RRIRIRPPRLPRPRPRPFTIPRP the value was -0.246. For RRIRERPPRLPRPRPRPVMTPRP the value was -0.221; for RRIRDRPPRLPRPRPRPEYQPRP, 0.637.

Regarding RRIRLRPPRLPRPRPRPNDHPRP, the “shrunken log2 fold change” value was -0.43. For RRIRSRPPRLPRPRPRPNVNPRP the value was 0.259; for RRIRKRPPRLPRPRPRPHGKPRP, 0.109; for RRIRMRPPRLPRPRPRPPVEPRP, 0.664. For RRIRMRPPRLPRPRPRPELKPRP, the “shrunken log2 fold change” value is 0.95. The value for RRIRNRPPRLPRPRPRPSPQPRP was 0.162; that for RRIRKRPPRLPRPRPRPMSIPRP was -0.0141. For RRIRFRPPRLPRPRPRPSTWPRP, the “shrunken log2 fold change” value was -0.000934. For RRIRIRPPRLPRPRPRPLQDPRP the value was -0.31.

In the case of RRIRDRPPRLPRPRPRPNETPRP, the “shrunken log2 fold change” value is -0.023.

As for RRIRDRPPRLPRPRPRPQPLPRP, the “shrunken log2 fold change” value was 0.194. For RRIRYRPPRLPRPRPRPCRQPRP the value was -0.442.

With RRIRSRPPRLPRPRPRPQCMPRP, the “shrunken log2 fold change” value is -0.584. For RRIRIRPPRLPRPRPRPKGAPRP the value was 0.36. For RRIRQRPPRLPRPRPRPGCCPRP the value was 0.202; for RRIRTRPPRLPRPRPRPKNHPRP, -0.712; for RRIRERPPRLPRPRPRPWLPPRP, -0.0302. For RRIRMRPPRLPRPRPRPHLHPRP the value was -0.301. As to RRIRRRPPRLPRPRPRPQTCPRP, the “shrunken log2 fold change” value turned out to be 0.247.

RRIRKRPPRLPRPRPRPMDQPRP: the “shrunken log2 fold change” value amounted to 0.0935. For RRIRGRPPRLPRPRPRPFQTPRP the value was 0.013; for RRIRFRPPRLPRPRPRPDKPPRP, 0.0269; for RRIRPRPPRLPRPRPRPGEAPRP, 0.426.

With RRIRCRPPRLPRPRPRPMKCPRP, the “shrunken log2 fold change” value was -0.173.

For RRIRQRPPRLPRPRPRPSKWPRP, the “shrunken log2 fold change” value was -0.351. For RRIRMRPPRLPRPRPRPIVSPRP, the “shrunken log2 fold change” value is -0.0362. With RRIRFRPPRLPRPRPRPKEQPRP, the “shrunken log2 fold change” value was -0.00277. The value for RRIRVRPPRLPRPRPRPSRCPRP was -0.101. The value for RRIRARPPRLPRPRPRPSNKPRP was -0.31; that for RRIRMRPPRLPRPRPRPFDAPRP was 0.396. For RRIRTRPPRLPRPRPRPFVEPRP the value was -0.284; for RRIRWRPPRLPRPRPRPIQQPRP, 0.0331; for RRIRLRPPRLPRPRPRPSRFPRP, -0.211. Consider RRIRYRPPRLPRPRPRPMKFPRP, for which the “shrunken log2 fold change” value is -0.0276. The value for RRIRARPPRLPRPRPRPPCYPRP was 0.146. The value for RRIRTRPPRLPRPRPRPKNMPRP was -0.359; that for RRIRNRPPRLPRPRPRPVILPRP was -0.61. For the sequence RRIRERPPRLPRPRPRPLGGPRP, the “shrunken log2 fold change” value is -0.073. For RRIRQRPPRLPRPRPRPCPNPRP the value was -0.152. The value for RRIRTRPPRLPRPRPRPNDMPRP was -0.209. In the case of RRIRMRPPRLPRPRPRPYPRPRP, the “shrunken log2 fold change” value is 0.112. For the sequence RRIRKRPPRLPRPRPRPINSPRP, the “shrunken log2 fold change” value is -0.395. The value for RRIRWRPPRLPRPRPRPHRRPRP was -0.0988. Consider RRIRSRPPRLPRPRPRPGPVPRP, for which the “shrunken log2 fold change” value is 0.384. RRIRQRPPRLPRPRPRPKTEPRP: the “shrunken log2 fold change” value came out at 0.104. For RRIRARPPRLPRPRPRPPEHPRP the value was 0.606; for RRIRPRPPRLPRPRPRPHCEPRP, 0.308; for RRIRERPPRLPRPRPRPTAPPRP, -0.043. The value for RRIRSRPPRLPRPRPRPTKHPRP was -0.151. As to RRIRARPPRLPRPRPRPFWEPRP, the “shrunken log2 fold change” value is 0.269.

RRIRMRPPRLPRPRPRPFQWPRP: the “shrunken log2 fold change” value is -0.0962.

In the case of RRIRWRPPRLPRPRPRPPTAPRP, the “shrunken log2 fold change” value turned out to be 0.876. The value for RRIRCRPPRLPRPRPRPCWMPRP was -0.404; that for RRIRCRPPRLPRPRPRPGKVPRP was 0.181. For RRIRLRPPRLPRPRPRPADWPRP, the “shrunken log2 fold change” value amounted to 0.196. Consider RRIRRRPPRLPRPRPRPARNPRP, for which the “shrunken log2 fold change” value was 3.18. The value for RRIRIRPPRLPRPRPRPGLTPRP was -0.0421; that for RRIRTRPPRLPRPRPRPCRQPRP was -0.303; that for RRIRQRPPRLPRPRPRPEHMPRP was -0.0877. For RRIRIRPPRLPRPRPRPFSQPRP the value was -0.52; for RRIRNRPPRLPRPRPRPRFAPRP, 0.164. The value for RRIRLRPPRLPRPRPRPHYKPRP was -0.525; that for RRIRDRPPRLPRPRPRPDWSPRP was 0.147. RRIRNRPPRLPRPRPRPRSCPRP: the “shrunken log2 fold change” value came to 0.763. The value for RRIRERPPRLPRPRPRPDWGPRP was -0.00783; that for RRIRIRPPRLPRPRPRPYIWPRP was -0.0625. Regarding RRIRGRPPRLPRPRPRPAHQPRP, the “shrunken log2 fold change” value was found to be 0.65.

RRIRERPPRLPRPRPRPTQTPRP: the “shrunken log2 fold change” value is -0.00311. For RRIRRRPPRLPRPRPRPYSNPRP the value was -0.414.
